T1: PCLO, Q9Y6V0
T1 sequence (Q9Y6V0 4491-4600, limits assumed, looked up): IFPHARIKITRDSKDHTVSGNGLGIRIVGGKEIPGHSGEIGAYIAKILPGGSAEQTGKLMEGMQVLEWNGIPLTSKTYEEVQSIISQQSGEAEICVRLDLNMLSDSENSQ

T2: APBA2_2, Q99767
T2 sequence (Q99767 654-744, limits assumed, looked up): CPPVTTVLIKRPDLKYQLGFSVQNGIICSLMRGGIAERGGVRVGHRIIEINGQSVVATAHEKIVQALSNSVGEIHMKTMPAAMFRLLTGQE

T3: LIN7C, Q9NUP9
T3 sequence (Q9NUP9 88-185, limits assumed, looked up): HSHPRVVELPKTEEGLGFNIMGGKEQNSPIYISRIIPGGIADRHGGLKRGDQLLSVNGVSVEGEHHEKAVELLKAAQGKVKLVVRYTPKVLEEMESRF

T4: APBA2_1, Q99767
T4 sequence (Q99767 563-664, limits assumed, looked up): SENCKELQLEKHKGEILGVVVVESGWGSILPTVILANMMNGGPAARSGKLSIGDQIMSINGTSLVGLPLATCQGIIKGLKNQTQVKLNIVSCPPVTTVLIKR

T5: PARD3B_1, Q8TEW8
T5 sequence (Q8TEW8 196-299, limits assumed, looked up): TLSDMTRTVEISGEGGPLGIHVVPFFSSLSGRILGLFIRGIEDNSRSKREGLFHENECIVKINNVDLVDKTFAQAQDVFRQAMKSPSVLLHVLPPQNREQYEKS

T6: RAPGEF6, Q8TEU7
T6 sequence (Q8TEU7 525-625, limits assumed, looked up): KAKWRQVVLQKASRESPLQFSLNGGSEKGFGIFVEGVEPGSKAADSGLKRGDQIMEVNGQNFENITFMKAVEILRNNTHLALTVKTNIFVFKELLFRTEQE

T7: DLG3_1, Q92796
T7 sequence (Q92796 125-227, limits assumed, looked up): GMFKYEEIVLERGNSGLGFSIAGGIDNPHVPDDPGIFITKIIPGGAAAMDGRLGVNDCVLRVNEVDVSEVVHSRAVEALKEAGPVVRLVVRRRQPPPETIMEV

T8: APBA1_1, Q02410
T8 sequence (Q02410 651-752, limits assumed, looked up): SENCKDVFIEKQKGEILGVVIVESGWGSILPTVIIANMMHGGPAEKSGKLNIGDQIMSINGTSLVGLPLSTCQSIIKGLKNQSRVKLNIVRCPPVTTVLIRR

T9: DLG3_2, Q92796
T9 sequence (Q92796 221-321, limits assumed, looked up): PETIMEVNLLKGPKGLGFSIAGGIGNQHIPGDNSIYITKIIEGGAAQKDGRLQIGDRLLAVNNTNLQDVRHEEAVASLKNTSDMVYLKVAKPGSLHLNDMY

T10: TX1BP3, O14907
T10 sequence (O14907 10-122, limits assumed, looked up): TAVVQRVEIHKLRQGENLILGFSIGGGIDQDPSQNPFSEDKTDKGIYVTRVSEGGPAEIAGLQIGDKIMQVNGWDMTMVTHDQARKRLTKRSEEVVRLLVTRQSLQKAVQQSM

T11: SNTG2, Q9NY99
T11 sequence (Q9NY99 68-166, limits assumed, looked up): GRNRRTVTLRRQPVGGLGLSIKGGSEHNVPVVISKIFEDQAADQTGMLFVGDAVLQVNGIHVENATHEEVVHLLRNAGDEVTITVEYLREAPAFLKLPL

T12: LIN7A, O14910
T12 sequence (O14910 103-200, limits assumed, looked up): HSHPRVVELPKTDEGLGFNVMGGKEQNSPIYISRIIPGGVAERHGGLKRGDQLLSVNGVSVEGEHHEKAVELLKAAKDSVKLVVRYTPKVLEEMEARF


What was measured:
Test in all cases: holdup assay
Parameters in all cases: key: below the threshold = too weak to quantify, mostly under pKd 3.1 to 4
Conditions in all cases: plain residues with an end cap or a label only (N-terminal biotin on a linker: ado-ado)
FRMPD3, Q5JV73 = target: FRMPD3, Q5JV73
LNX1_1, Q8TBB1 = target: LNX1_1, Q8TBB1
HTRA2, O43464 = target: HTRA2, O43464
PCLO, Q9Y6V0 = target: T1, PCLO, Q9Y6V0
GRASP, Q7Z6J2 = target: GRASP, Q7Z6J2
APBA2_2, Q99767 = target: T2, APBA2_2, Q99767
LIN7C, Q9NUP9 = target: T3, LIN7C, Q9NUP9
LNX1_2, Q8TBB1 = target: LNX1_2, Q8TBB1
ARHGEF12, Q9NZN5-2 = target: ARHGEF12, Q9NZN5-2
APBA2_1, Q99767 = target: T4, APBA2_1, Q99767
PARD3B_1, Q8TEW8 = target: T5, PARD3B_1, Q8TEW8
RAPGEF6, Q8TEU7 = target: T6, RAPGEF6, Q8TEU7
DLG3_1, Q92796 = target: T7, DLG3_1, Q92796
DLG1_3, Q12959 = target: DLG1_3, Q12959
Inadl_9, Q8NI35 = target: Inadl_9, Q8NI35
MAGI3_2, Q5TCQ9 = target: MAGI3_2, Q5TCQ9
APBA1_1, Q02410 = target: T8, APBA1_1, Q02410
LIMK2, P53671 = target: LIMK2, P53671
GRIP2_7, Q9C0E4 = target: GRIP2_7, Q9C0E4
DLG3_2, Q92796 = target: T9, DLG3_2, Q92796
TX1BP3, O14907 = target: T10, TX1BP3, O14907
Inadl_10, Q8NI35 = target: Inadl_10, Q8NI35
SNTG2, Q9NY99 = target: T11, SNTG2, Q9NY99
MAGI2_6, Q86UL8 = target: MAGI2_6, Q86UL8
LIN7A, O14910 = target: T12, LIN7A, O14910

MAGI2_6, Q86UL8, sequence (Q86UL8 1141-1229): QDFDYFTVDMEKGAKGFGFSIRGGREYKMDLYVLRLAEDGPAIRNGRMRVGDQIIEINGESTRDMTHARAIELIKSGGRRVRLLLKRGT
GRASP, Q7Z6J2, sequence (Q7Z6J2 96-193): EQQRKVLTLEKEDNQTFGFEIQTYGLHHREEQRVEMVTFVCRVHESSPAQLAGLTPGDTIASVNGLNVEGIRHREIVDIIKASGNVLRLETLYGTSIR
Inadl_10, Q8NI35, sequence (Q8NI35 1673-1763): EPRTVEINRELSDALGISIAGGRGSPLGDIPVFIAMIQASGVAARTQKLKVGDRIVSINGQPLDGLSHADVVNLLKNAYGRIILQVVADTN
Inadl_9, Q8NI35, sequence (Q8NI35 1530-1615): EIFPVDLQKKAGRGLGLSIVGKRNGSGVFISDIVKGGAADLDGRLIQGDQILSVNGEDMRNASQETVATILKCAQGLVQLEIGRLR
DLG1_3, Q12959, sequence (Q12959 457-571): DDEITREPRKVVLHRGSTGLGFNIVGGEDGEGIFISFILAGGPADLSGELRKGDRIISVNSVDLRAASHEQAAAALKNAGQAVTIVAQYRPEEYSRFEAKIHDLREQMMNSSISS
LNX1_1, Q8TBB1, sequence (Q8TBB1 261-371): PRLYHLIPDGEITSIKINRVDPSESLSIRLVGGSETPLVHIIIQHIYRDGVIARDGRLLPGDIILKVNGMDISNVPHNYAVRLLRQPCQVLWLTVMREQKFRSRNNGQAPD
ARHGEF12, Q9NZN5-2, sequence (Q9NZN5 other isoform, or with tags, fused parts or gaps): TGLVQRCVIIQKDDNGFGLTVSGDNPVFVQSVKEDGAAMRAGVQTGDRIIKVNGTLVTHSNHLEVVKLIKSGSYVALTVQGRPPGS
HTRA2, O43464, sequence (O43464 355-458): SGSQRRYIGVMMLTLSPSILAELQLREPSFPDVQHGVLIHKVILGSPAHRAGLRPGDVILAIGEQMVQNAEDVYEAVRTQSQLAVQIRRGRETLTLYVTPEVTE
LIMK2, P53671, sequence (P53671 143-248): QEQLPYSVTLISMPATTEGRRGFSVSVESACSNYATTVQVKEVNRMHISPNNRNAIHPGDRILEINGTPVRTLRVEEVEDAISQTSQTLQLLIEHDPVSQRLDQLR
FRMPD3, Q5JV73, sequence (Q5JV73 12-100): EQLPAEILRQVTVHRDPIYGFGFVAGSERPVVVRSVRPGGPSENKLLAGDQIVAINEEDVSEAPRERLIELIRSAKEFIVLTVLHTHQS
LNX1_2, Q8TBB1, sequence (Q8TBB1 371-470): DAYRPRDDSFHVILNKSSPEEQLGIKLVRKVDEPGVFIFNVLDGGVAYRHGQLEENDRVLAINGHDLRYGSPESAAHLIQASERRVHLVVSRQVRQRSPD
GRIP2_7, Q9C0E4, sequence (Q9C0E4 934-1023): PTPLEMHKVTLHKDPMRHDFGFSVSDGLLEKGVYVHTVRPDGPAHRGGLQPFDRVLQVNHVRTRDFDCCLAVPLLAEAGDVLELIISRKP
MAGI3_2, Q5TCQ9, sequence (Q5TCQ9 398-503): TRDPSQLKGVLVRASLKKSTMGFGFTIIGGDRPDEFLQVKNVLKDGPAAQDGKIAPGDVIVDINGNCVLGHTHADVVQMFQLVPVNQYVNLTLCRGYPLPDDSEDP

Row | Binder | pKd (FRMPD3, Q5JV73) | pKd (LNX1_1, Q8TBB1) | pKd (HTRA2, O43464) | pKd (PCLO, Q9Y6V0) | pKd (GRASP, Q7Z6J2) | pKd (APBA2_2, Q99767) | pKd (LIN7C, Q9NUP9) | pKd (LNX1_2, Q8TBB1) | pKd (ARHGEF12, Q9NZN5-2) | pKd (APBA2_1, Q99767) | pKd (PARD3B_1, Q8TEW8) | pKd (RAPGEF6, Q8TEU7) | pKd (DLG3_1, Q92796) | pKd (DLG1_3, Q12959) | pKd (Inadl_9, Q8NI35) | pKd (MAGI3_2, Q5TCQ9) | pKd (APBA1_1, Q02410) | pKd (LIMK2, P53671) | pKd (GRIP2_7, Q9C0E4) | pKd (DLG3_2, Q92796) | also measured
1 | KKTPVSRSHL [SLC22A3, O75751] | below the threshold | below the threshold | below the threshold | below the threshold | 4.38 | below the threshold | below the threshold | below the threshold | 4.2 | below the threshold | below the threshold | below the threshold | below the threshold | below the threshold | below the threshold | below the threshold | below the threshold | below the threshold | below the threshold | below the threshold | pKd (TX1BP3, O14907): 3.53; pKd (Inadl_10, Q8NI35): below the threshold; pKd (SNTG2, Q9NY99): 3.48; pKd (MAGI2_6, Q86UL8): below the threshold; pKd (LIN7A, O14910): below the threshold
2 | LLQEEWETVM [PTH1R, Q03431] | below the threshold | 3.72 | below the threshold | below the threshold | 3.72 | below the threshold | below the threshold | below the threshold | 3.61 | below the threshold | 4.43 | below the threshold | below the threshold | below the threshold | below the threshold | below the threshold | below the threshold | below the threshold | below the threshold | below the threshold | pKd (TX1BP3, O14907): below the threshold; pKd (Inadl_10, Q8NI35): below the threshold; pKd (SNTG2, Q9NY99): 3.95; pKd (MAGI2_6, Q86UL8): 3.75; pKd (LIN7A, O14910): below the threshold
3 | LPPPESESKV [KCNJ9, Q92806] | below the threshold | below the threshold | below the threshold | below the threshold | below the threshold | below the threshold | below the threshold | below the threshold | below the threshold | below the threshold | below the threshold | below the threshold | below the threshold | below the threshold | below the threshold | 4 | below the threshold | below the threshold | below the threshold | 4.23 | pKd (TX1BP3, O14907): below the threshold; pKd (Inadl_10, Q8NI35): below the threshold; pKd (SNTG2, Q9NY99): 3.74; pKd (MAGI2_6, Q86UL8): 3.48; pKd (LIN7A, O14910): below the threshold
4 | NNMAFETTHF [SLC5A12, Q1EHB4] | 3.5 | below the threshold | below the threshold | below the threshold | 4.8 | below the threshold | below the threshold | below the threshold | below the threshold | below the threshold | 4.49 | below the threshold | below the threshold | below the threshold | below the threshold | below the threshold | below the threshold | below the threshold | below the threshold | 4.08 | pKd (TX1BP3, O14907): 3.93; pKd (Inadl_10, Q8NI35): below the threshold; pKd (SNTG2, Q9NY99): below the threshold; pKd (MAGI2_6, Q86UL8): 4; pKd (LIN7A, O14910): 3.74
5 | SSSVNVSSNL [CXCR1, P25024] | below the threshold | 3.59 | below the threshold | below the threshold | 3.63 | below the threshold | below the threshold | below the threshold | 4.24 | below the threshold | 3.72 | below the threshold | below the threshold | below the threshold | below the threshold | below the threshold | below the threshold | below the threshold | below the threshold | below the threshold | pKd (TX1BP3, O14907): 3.84; pKd (Inadl_10, Q8NI35): below the threshold; pKd (SNTG2, Q9NY99): below the threshold; pKd (MAGI2_6, Q86UL8): below the threshold; pKd (LIN7A, O14910): below the threshold
6 | HLSTRQGTCV [ATRNL1, Q5VV63] | below the threshold | 4.34 | below the threshold | below the threshold | 4.28 | below the threshold | below the threshold | 3.71 | 3.51 | below the threshold | below the threshold | below the threshold | 3.84 | 3.58 | 4.1 | 5.16 | below the threshold | below the threshold | below the threshold | 4.22 | pKd (TX1BP3, O14907): below the threshold; pKd (Inadl_10, Q8NI35): below the threshold; pKd (SNTG2, Q9NY99): 3.67; pKd (MAGI2_6, Q86UL8): 4; pKd (LIN7A, O14910): below the threshold
